Experimental data as given in patent US20120171195A1.
Values belong to the substance of their own block, whether it stands above or below them.

How the values were obtained:
[1] = target: HLA-Cw*0304 (human); assay: Luminex beads; MAb 1/200; competitor IgG-free serum
[2] = target: HLA-B*4006 (human) (UniProt P01889); assay: as above
[3] = target: HLA-Cw*1701 (human); assay: as above
[4] = target: HLA-Cw*0501 (human); assay: as above
[5] = target: HLA-B*1401 (human) (UniProt P01889); assay: as above
[6] = target: HLA-B*5801 (human); assay: as above
[7] = target: HLA-Cw*1802 (human) (UniProt P10321); assay: as above
[8] = target: HLA-Cw*0602 (human) (UniProt P10321); assay: as above
[9] = target: HLA-B*5201 (human); assay: as above
[10] = target: HLA-Cw*0801 (human) (UniProt P10321); assay: Luminex beads; MAb 1/400; PBS only
[11] = target: HLA-Cw*1802 (human) (UniProt P10321); assay: Luminex beads; MAb 1/400; PBS only
[12] = target: HLA-Cw*0302 (human) (UniProt P10321); assay: Luminex beads; MAb 1/400; PBS only
[13] = target: HLA-Cw*0202 (human); assay: Luminex beads; MAb 1/200; PBS only
[14] = target: HLA-B*4501 (human); assay: Luminex beads; MAb 1/200; PBS only
[15] = target: HLA-B*4006 (human) (UniProt P01889); assay: Luminex beads; MAb 1/200; PBS only
[16] = target: HLA-Cw*1701 (human); assay: Luminex beads; MAb 1/200; PBS only
[17] = target: HLA-Cw*0501 (human); assay: Luminex beads; MAb 1/200; PBS only
[18] = target: HLA-B*1401 (human) (UniProt P01889); assay: Luminex beads; MAb 1/200; PBS only
[19] = target: HLA-B*5801 (human); assay: Luminex beads; MAb 1/200; PBS only
[20] = target: HLA-Cw*1802 (human) (UniProt P10321); assay: Luminex beads; MAb 1/200; PBS only
[21] = target: HLA-B*1511 (human) (UniProt P01889); assay: Luminex beads; MAb 1/100; competitor IgG-free serum
[22] = target: HLA-Cw*0202 (human); assay: as above
[23] = target: HLA-B*4101 (human) (UniProt P01889); assay: as above
[24] = target: HLA-B*4403 (human); assay: as above
[25] = target: HLA-Cw*1402 (human) (UniProt P10321); assay: as above
[26] = target: HLA-Cw*0801 (human) (UniProt P10321); assay: as above
[27] = target: HLA-B*4006 (human) (UniProt P01889); assay: as above
[28] = target: HLA-Cw*1701 (human); assay: as above
[29] = target: HLA-B*1801 (human); assay: as above
[30] = target: HLA-Cw*0501 (human); assay: as above
[31] = target: HLA-Cw*0702 (human) (UniProt P10321); assay: as above
[32] = target: HLA-B*1401 (human) (UniProt P01889); assay: as above
[33] = target: HLA-B*5801 (human); assay: as above
[34] = target: HLA-Cw*0602 (human) (UniProt P10321); assay: as above
[35] = target: HLA-Cw*0302 (human) (UniProt P10321); assay: as above
[36] = target: HLA-A*3201 (A32) (human); assay: Luminex single-antigen beads; rank of MEM-E/02 reactivity among HLA-Ia alleles
[37] = target: HLA-B*6701 (B67) (human) (UniProt P01889); assay: as above
[38] = target: HLA-Cw*1203 (Cw12) (human) (UniProt P10321); assay: as above
[39] = target: HLA-B*3801 (B38) (human); assay: as above
[40] = target: HLA-B*0801 (B8) (human) (UniProt P01889); assay: as above
[41] = target: HLA-B*1513 (B77) (human); assay: as above
[42] = target: HLA-A*2501 (A25) (human); assay: as above
[43] = target: HLA-B*1516 (B63) (human); assay: as above
[44] = target: HLA-A*2601 (A26) (human); assay: as above

MFI [1]: 2030 MFI | MFI [2]: 7410 MFI | MFI [3]: 1930 MFI | MFI [4]: 6260 MFI | MFI [5]: 5370 MFI | MFI [6]: 3420 MFI | MFI [7]: 8810 MFI | MFI [8]: 2190 MFI | MFI [9]: 2020 MFI | MFI [10]: 3340 MFI | MFI [11]: 7040 MFI | MFI [12]: 1360 MFI | MFI [13]: 3020 MFI | MFI [14]: 3670 MFI | MFI [15]: 7010 MFI | MFI [16]: 2270 MFI | MFI [17]: 5830 MFI | MFI [18]: 5330 MFI | MFI [19]: 2830 MFI | MFI [20]: 8830 MFI | MFI [21]: 3320 MFI | MFI [22]: 4110 MFI | MFI [23]: 3390 MFI | MFI [24]: 3900 MFI | MFI [25]: 3290 MFI | MFI [26]: 6070 MFI | MFI [27]: 9090 MFI | MFI [28]: 2820 MFI | MFI [29]: 3510 MFI | MFI [30]: 7530 MFI | MFI [31]: 3090 MFI | MFI [32]: 7080 MFI | MFI [33]: 4570 MFI | MFI [34]: 4180 MFI | MFI [35]: 2200 MFI
Substance: murine monoclonal antibody (MAb) MEM-E/02

MEM-E/02 Reactivity Rank [36]: > 65 rank | MEM-E/02 Reactivity Rank [37]: > 65 rank | MEM-E/02 Reactivity Rank [38]: 36 rank | MEM-E/02 Reactivity Rank [39]: > 65 rank | MEM-E/02 Reactivity Rank [40]: > 65 rank | MEM-E/02 Reactivity Rank [41]: 41 rank | MEM-E/02 Reactivity Rank [42]: > 65 rank | MEM-E/02 Reactivity Rank [43]: 43 rank | MEM-E/02 Reactivity Rank [44]: 60 rank
Substance: murine monoclonal antibody MAb MEM-E/02
